Data published in patent US20240317834A1, “COMPOSITIONS AND METHODS FOR NEUROLOGICAL DISEASES” (CODA BIOTHERAPEUTICS, INC., priority 2020, published 2024).

Test system: Lenti-X 293T cells
Experiment: YFP fluorescence quenching anion reporter plate reader assay of engineered receptors stimulated with acetylcholine or a non-native ligand
Format: cell-based
Conditions: for percent quench of YFP fluorescence, 10 uM ach: acetylcholine 10 uM; for percent quench of YFP fluorescence, 100 uM ach: acetylcholine 100 uM; for percent quench of YFP fluorescence, 1 mM ach: acetylcholine 1 mM; for percent quench of YFP fluorescence, 3 mM ach: acetylcholine 3 mM
Method in brief: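 YFP quench was followed for about 1 min 43 s after ligand delivered in iodide-based ECS, pH 7.2. Values are end-of-read fluorescence (last 10 s) divided by the pre-ligand baseline (15 s). Cells were LX293T, transfected with receptor DNA a day before the assay.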

B1: CODA405: engineered chimeric LGIC receptor, Y210V in SEQ ID NO: 33 (protein)
chain: MRCSPGGVWLALAASLLHVSLQGEFQRKLYKELVKNYNPLERPVANDSQPLTVYFSLSLLQIMDVDEKNQVLTTNIWLQMSWTDHYLQWNVSEYPGVKTVRFPDGQIWKPDILLYNSADERFDATFHTNVLVNSSGHCQYLPPGIFKSSCPMDLKNFPMDVQTCKLKFGSWSYGGWSLDLQMQEADISGYIPNGEWDLVGIPGKRSERFVECCKEPYPDVTFTVTMRRRMGYYLIQMYIPSLLIVILSWISFWINMDAAPARVGLGITTVLTMTTQSSGSRASLPKVSYVKAIDIWMAVCLLFVFSALLEYAAVNFVSRQHKELLRFRRKRRHHKSPMLNLFQEDEAGEGRFNFSAYGMGPACLQAKDGISVKGANNSNTTNPPPAPSKSPEEMRKLFIQRAKKIDKISRIGFPMAFLIFNMFYWIIYKIVRREDVHNQ
modifications: synthetic sequence of chimeric LGIC
YFP fluorescence quenching using CNL001 (1 nM CNL001, first column): −16.246% | YFP fluorescence quenching using CNL001 (1 nM CNL001, second column): −4.217% | YFP fluorescence quenching using TC-5619/Bradanicline (3 nM brd): 9.92% | YFP fluorescence quenching using Varenicline (3 nM var, first column): 7.317 | YFP fluorescence quenching using Varenicline (3 nM var, second column): 7.643 | YFP fluorescence quenching using CNL001 (10 nM CNL001, first column): −6.142% | YFP fluorescence quenching using CNL001 (10 nM CNL001, second column): −10.003% | YFP fluorescence quenching using TC-5619/Bradanicline (30 nM brd): 4.37% | YFP fluorescence quenching using Facinicline (30 nM fac): −26.25 | YFP fluorescence quenching using Varenicline (30 nM var, first column): 9.457 | YFP fluorescence quenching using Varenicline (30 nM var, second column): 9.134 | YFP fluorescence quenching using CNL001 (50 nM CNL001, first column): −11.054% | YFP fluorescence quenching using CNL001 (50 nM CNL001, second column): −10.06% | YFP fluorescence quenching using ABT-126 (50 nM abt): −2.9% | YFP fluorescence quenching using CNL001 (100 nM CNL001, first column): −3.832% | YFP fluorescence quenching using CNL001 (100 nM CNL001, second column): −3.784% | YFP fluorescence quenching using CNL002 (100 nM CNL002): −14.3% | YFP fluorescence quenching using ABT-126 (100 nM abt): −2.06% | YFP fluorescence quenching using AZD-0328 (100 nM azd0328): −8.13% | YFP fluorescence quenching using ABT-126 (300 nM abt): −0.19% | YFP fluorescence quenching using AZD-0328 (300 nM azd0328): −3.35% | YFP fluorescence quenching using TC-5619/Bradanicline (300 nM brd): 59% | YFP fluorescence quenching using Facinicline (300 nM fac): −23.52 | YFP fluorescence quenching using Varenicline (300 nM var, first column): 15.503 | YFP fluorescence quenching using Varenicline (300 nM var, second column): 11.954 | YFP fluorescence quenching using Varenicline (500 nM var, first column): 13.427 | YFP fluorescence quenching using Varenicline (500 nM var, second column): 10.784 | YFP fluorescence quenching using CNL001 (1 uM CNL001, first column): 1.129% | YFP fluorescence quenching using CNL001 (1 uM CNL001, second column): 7.1% | YFP fluorescence quenching using CNL002 (1 uM CNL002): −7.56% | YFP fluorescence quenching using ABT-126 (1 uM abt): −3.64% | YFP fluorescence quenching using TC-6987 (1 uM tc6987): −22.63 | YFP fluorescence quenching using Varenicline (1 uM var, first column): 9.032 | YFP fluorescence quenching using Varenicline (1 uM var, second column): 11.591 | YFP fluorescence quenching using TC-6987 (10 uM tc6987): −23.03 | YFP fluorescence quenching using CNL002 (30 uM CNL002): −2.02% | YFP fluorescence quenching using AZD-0328 (30 uM azd0328): −2.86% | YFP fluorescence quenching using Facinicline (30 uM fac): 0.83 | YFP fluorescence quenching using TC-6987 (500 uM tc6987): −40.88 | percent quench of YFP fluorescence, 10 uM ach: −6.31% | percent quench of YFP fluorescence, 100 uM ach: −14.48% | percent quench of YFP fluorescence, 1 mM ach: −2.82% | percent quench of YFP fluorescence, 3 mM ach: 1.06%

B2: CODA407: engineered chimeric LGIC receptor, Y210F in SEQ ID NO: 33 (protein)
chain: MRCSPGGVWLALAASLLHVSLQGEFQRKLYKELVKNYNPLERPVANDSQPLTVYFSLSLLQIMDVDEKNQVLTTNIWLQMSWTDHYLQWNVSEYPGVKTVRFPDGQIWKPDILLYNSADERFDATFHTNVLVNSSGHCQYLPPGIFKSSCPMDLKNFPMDVQTCKLKFGSWSYGGWSLDLQMQEADISGYIPNGEWDLVGIPGKRSERFFECCKEPYPDVTFTVTMRRRMGYYLIQMYIPSLLIVILSWISFWINMDAAPARVGLGITTVLTMTTQSSGSRASLPKVSYVKAIDIWMAVCLLFVFSALLEYAAVNFVSRQHKELLRFRRKRRHHKSPMLNLFQEDEAGEGRFNFSAYGMGPACLQAKDGISVKGANNSNTTNPPPAPSKSPEEMRKLFIQRAKKIDKISRIGFPMAFLIFNMFYWIIYKIVRREDVHNQ
modifications: synthetic sequence of chimeric LGIC
YFP fluorescence quenching using CNL001 (1 nM CNL001, first column): −10.845% | YFP fluorescence quenching using CNL001 (1 nM CNL001, second column): −2.629% | YFP fluorescence quenching using TC-5619/Bradanicline (3 nM brd): −0.53% | YFP fluorescence quenching using Varenicline (3 nM var, first column): 2.441 | YFP fluorescence quenching using Varenicline (3 nM var, second column): 7.326 | YFP fluorescence quenching using CNL001 (10 nM CNL001, first column): 4.66% | YFP fluorescence quenching using CNL001 (10 nM CNL001, second column): 12.246% | YFP fluorescence quenching using TC-5619/Bradanicline (30 nM brd): 8.71% | YFP fluorescence quenching using Facinicline (30 nM fac): −21.94 | YFP fluorescence quenching using Varenicline (30 nM var, first column): 1.275 | YFP fluorescence quenching using Varenicline (30 nM var, second column): 12.96 | YFP fluorescence quenching using CNL001 (50 nM CNL001, first column): 29.307% | YFP fluorescence quenching using CNL001 (50 nM CNL001, second column): 41.78% | YFP fluorescence quenching using ABT-126 (50 nM abt): −13.07% | YFP fluorescence quenching using CNL001 (100 nM CNL001, first column): 50.654% | YFP fluorescence quenching using CNL001 (100 nM CNL001, second column): 62.054% | YFP fluorescence quenching using CNL002 (100 nM CNL002): −12.47% | YFP fluorescence quenching using ABT-126 (100 nM abt): 0.1% | YFP fluorescence quenching using AZD-0328 (100 nM azd0328): 0.85% | YFP fluorescence quenching using ABT-126 (300 nM abt): 5.97% | YFP fluorescence quenching using AZD-0328 (300 nM azd0328): 1.25% | YFP fluorescence quenching using TC-5619/Bradanicline (300 nM brd): 76.26% | YFP fluorescence quenching using Facinicline (300 nM fac): −22.46 | YFP fluorescence quenching using Varenicline (300 nM var, first column): 13.119 | YFP fluorescence quenching using Varenicline (300 nM var, second column): 2.355 | YFP fluorescence quenching using Varenicline (500 nM var, first column): 11.539 | YFP fluorescence quenching using Varenicline (500 nM var, second column): 6.571 | YFP fluorescence quenching using CNL001 (1 uM CNL001, first column): 81.742% | YFP fluorescence quenching using CNL001 (1 uM CNL001, second column): 81.304% | YFP fluorescence quenching using CNL002 (1 uM CNL002): −3.93% | YFP fluorescence quenching using ABT-126 (1 uM abt): 50.23% | YFP fluorescence quenching using TC-6987 (1 uM tc6987): −15.22 | YFP fluorescence quenching using Varenicline (1 uM var, first column): 8.397 | YFP fluorescence quenching using Varenicline (1 uM var, second column): 7.309 | YFP fluorescence quenching using TC-6987 (10 uM tc6987): −19.89 | YFP fluorescence quenching using CNL002 (30 uM CNL002): 80.97% | YFP fluorescence quenching using AZD-0328 (30 uM azd0328): 82.08% | YFP fluorescence quenching using Facinicline (30 uM fac): 82.63 | YFP fluorescence quenching using TC-6987 (500 uM tc6987): −33.32 | percent quench of YFP fluorescence, 10 uM ach: −3.75% | percent quench of YFP fluorescence, 100 uM ach: −1.6% | percent quench of YFP fluorescence, 1 mM ach: 71.65% | percent quench of YFP fluorescence, 3 mM ach: 79.09%
